Here are results for two molecules from patent US20200200749A1.

In assay [1] the target is BDBV GP (recombinant, full-length extracellular domain) (BDBV (Bundibugyo ebolavirus)). The assay can be described thus: ELISA, GP coated on plate, mAb serially diluted. Background: In an ELISA, binding on a coated surface is turned into a signal by an enzyme label.
The target in assay [2] is BDBV GP on virus (BDBV (Bundibugyo ebolavirus)). Kind of assay: cell-based or functional assay.

Usually EC50 stands for the concentration needed to bring the measured effect to its halfway point.

B1: EBOV62 (antibody, V domains shown)
VH: EVQLVESGGGLVQPGGSLRLSCAASGFTFSSYWMSWVRQAPGKGLEWVANIKQDGSAKYYVDSVKGRFTISRDNAKNSLYLQMNSLRAEDTAVYYCARDGLLGISDLLYPIYYFDYWGQGTLVTVSS
VL: DIVMTQSPSSLSASVGDRVTITCRASQNIGSYLNWYQQKPGKAPNLLMYAASSLQSGVPSRFSGSGSGTDFTLTITSLQPEDFATYYCQQSYSIPRTFGQGTQLEIK
For B1, the EC50 in assay [1] stood at 508 µg/mL.

B2: BDBV223 (antibody, V domains shown)
VH: QVQLQQWGAGLLKPSETLSLTCAVYGGSFTTTYWNWIRQPPGKGLEWIGEVNYSGNANYNPSLKGRVAISVDTSKNQFSLRLNSVTAADTAIYYCTSRIRSHIAYSWKGDVWGKGTTVTVSS
VL: EIVMTQSPGTLSLSPGERATLSCRASQSVPRNYIGWFQQKPGQAPRLLIYGASSRAAGFPDRFSGSGSGTDFTLTITRLEPEDFAMYYCHQYDRLPYTFGQGTKLEIK
In turn, B2 had an IC50, neutralization of BDBV in assay [2] of 0.005 µg/mL.
